Residue numbers refer to the chain shown, from its start. Each block holds one molecule with its values, some of them ahead of it.
Molecular target: T1, pKal (Homo sapiens, UniProt P03952)
T1 construct: two disulfide linked polypeptides; a heavy chain of approximately 52 kDa and a catalytic domain of approximately 34 kDa; host or cells: human plasma
Experiment: Fab fragments (small scale) tested for inhibition against human pKal in an in vitro protease cleavage assay
Format: biochemical
Settings: Table 9
Description: By DNA sequencing, we recovered 61 of the possible 80 antibodies (Table 9). These antibodies were produced as Fab fragments in small scale (˜20 μg) and tested for inhibition against human pKal in an in vitro protease cleavage assay using Pro-Phe-Arg-aminomethylcoumarin as the synthetic peptide substrate. […] Five antibodies were then expressed in 293T cells and purified by protein A sepharose chromatography. The antibodies were analyzed by SDS-PAGE to determine which of the inhibitory mutants are not cleaved by the host cell protease(s) (data not shown).

T1 sequence (P03952 391-638 limits assumed): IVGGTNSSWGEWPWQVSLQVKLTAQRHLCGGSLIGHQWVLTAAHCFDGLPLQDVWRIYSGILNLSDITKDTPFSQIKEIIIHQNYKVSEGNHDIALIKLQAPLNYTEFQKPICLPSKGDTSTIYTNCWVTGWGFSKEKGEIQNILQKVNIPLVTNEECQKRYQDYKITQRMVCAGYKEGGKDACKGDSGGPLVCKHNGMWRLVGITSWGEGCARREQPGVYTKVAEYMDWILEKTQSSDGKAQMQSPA
T1 sequence (P03952 20-390 partner limits assumed): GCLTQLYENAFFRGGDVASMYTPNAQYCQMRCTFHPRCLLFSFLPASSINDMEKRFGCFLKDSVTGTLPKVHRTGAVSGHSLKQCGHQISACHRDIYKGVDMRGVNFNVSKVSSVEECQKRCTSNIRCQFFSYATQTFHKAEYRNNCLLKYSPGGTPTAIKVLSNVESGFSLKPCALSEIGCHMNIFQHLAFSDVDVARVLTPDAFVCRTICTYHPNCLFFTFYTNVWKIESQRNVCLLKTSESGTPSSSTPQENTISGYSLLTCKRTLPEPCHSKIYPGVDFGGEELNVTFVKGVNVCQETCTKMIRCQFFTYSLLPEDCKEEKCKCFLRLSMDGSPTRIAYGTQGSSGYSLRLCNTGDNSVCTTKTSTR

B1: X66-G08: single point mutation of M142-H08 (P1); HV-CDR3 GGLLLWFYELKSNYFDY (antibody, V domains shown)
VL: QDIQMTQSPSSLSAFVGDRVTITCRASQPIDNYLNWYHQKPGKAPKLLIYAASRLQSGVPSRLSGSGFGTDFTLTISSLQPEDFGNYYCQQSYTVPYTFGGGTKVEIR
VH: EVQLLESGGGLVQPGGSLRLSCAASGFTFSAYSMIWVRQAPGKGLEWVSYIRPSGGRTTYADSVKGRFTISRDNSKNTLYLQMNSLRAEDTAVYYCARGGLLLWFYELKSNYFDYWGQGTLVTVSSASTKGPSVFPLAPSSKS
Inhibit as a Fab?: No

B2: X69-A10: single point mutation of M142-H08 (P1′); HV-CDR3 GGLLLWFRPLKSNYFDY (antibody, V domains shown)
VL: B1 VL
VH: B1 VH with Y106R, E107P
Inhibit as a Fab?: No

B3: X68-E12: single point mutation of M142-H08 (P3); HV-CDR3 GGLLLCFRELKSNYFDY (antibody, V domains shown)
VL: B1 VL
VH: B1 VH with W104C, Y106R
Inhibit as a Fab?: No

B5: X68-F05: single point mutation of M142-H08 (P3); HV-CDR3 GGLLLMFRELKSNYFDY (antibody, V domains shown)
VL: B1 VL
VH: B1 VH with W104M, Y106R
Inhibit as a Fab?: No

B6: X68-E03: single point mutation of M142-H08 (P3); HV-CDR3 GGLLLEFRELKSNYFDY (antibody, V domains shown)
VL: B1 VL
VH: B1 VH with W104E, Y106R
Inhibit as a Fab?: No

B8: X68-D11: single point mutation of M142-H08 (P3); HV-CDR3 GGLLLKFRELKSNYFDY (antibody, V domains shown)
VL: B1 VL
VH: B1 VH with W104K, Y106R
Inhibit as a Fab?: No

B9: X69-A09: single point mutation of M142-H08 (P1′); HV-CDR3 … (antibody, V domains shown)
VL: B1 VL
VH: B1 VH with Y106R, E107S
Inhibit as a Fab?: Yes

B10: X68-A03: single point mutation of M142-H08 (P3); HV-CDR3 GGLLLDFRELKSNYFDY (antibody, V domains shown)
VL: B1 VL with G85S
VH: B1 VH with W104D, Y106R
Inhibit as a Fab?: No

B11: X69-A12: single point mutation of M142-H08 (P1′); HV-CDR3 GGLLLWFRKLKSNYFDY (antibody, V domains shown)
VL: B1 VL
VH: B1 VH with Y106R, E107K
Inhibit as a Fab?: No

B12: X68-F12: single point mutation of M142-H08 (P3); HV-CDR3 GGLLLTFRELKSNYFDY (antibody, V domains shown)
VL: B1 VL
VH: B1 VH with W104T, Y106R
Inhibit as a Fab?: No

B13: X68-D10: single point mutation of M142-H08 (P3); HV-CDR3 GGLLLPFRELKSNYFDY (antibody, V domains shown)
VL: B1 VL
VH: B1 VH with W104P, Y106R
Inhibit as a Fab?: No

B17: X68-G05: single point mutation of M142-H08 (P3); HV-CDR3 GGLLLSFRELKSNYFDY (antibody, V domains shown)
VL: B1 VL
VH: B1 VH with T78I, W104S, Y106R
Inhibit as a Fab?: No

B21: X68-F10: single point mutation of M142-H08 (P3); HV-CDR3 GGLLLQFRELKSNYFDY (antibody, V domains shown)
VL: B1 VL
VH: B1 VH with W104Q, Y106R
Inhibit as a Fab?: No

B22: X68-A12: single point mutation of M142-H08 (P3); HV-CDR3 GGLLLGFRELKSNYFDY (antibody, V domains shown)
VL: B1 VL
VH: B1 VH with W104G, Y106R
Inhibit as a Fab?: No

B23: X68-G01: single point mutation of M142-H08 (P3); HV-CDR3 GGLLLRFRELKSNYFDY (antibody, V domains shown)
VL: B1 VL
VH: B1 VH with W104R, Y106R
Inhibit as a Fab?: No

B24: X68-E01: single point mutation of M142-H08 (P3); HV-CDR3 GGLLLLFRELKSNYFDY (antibody, V domains shown)
VL: B1 VL
VH: B1 VH with W104L, Y106R
Inhibit as a Fab?: Yes

B25: X68-H04: single point mutation of M142-H08 (P3); HV-CDR3 GGLLLVFRELKSNYFDY (antibody, V domains shown)
VL: B1 VL
VH: B1 VH with W104V, Y106R
Inhibit as a Fab?: No

Results, then the molecule that gave them:

Inhibit as a Fab?: No
B4: X69-E05: single point mutation of M142-H08 (P1′); HV-CDR3 GGLLLWFRRLKSNYFDY (antibody, V domains shown)
VL: B1 VL
VH: B1 VH with Y106R, E107R

Inhibit as a Fab?: Yes
B7: X69-C12: single point mutation of M142-H08 (P1′); HV-CDR3 GGLLLWFRVLKSNYFDY (antibody, V domains shown)
VL: B1 VL
VH: B1 VH with Y106R, E107V

Inhibit as a Fab?: Yes
B14: X69-B08: single point mutation of M142-H08 (P1′); HV-CDR3 GGLLLWFRNLKSNYFDY (antibody, V domains shown)
VL: B1 VL
VH: B1 VH with Y106R, E107N

Inhibit as a Fab?: Yes
B15: X69-F09: single point mutation of M142-H08 (P1′); HV-CDR3 GGLLLWFRSLKSNYFDY (antibody, V domains shown)
VL: B1 VL
VH: B1 VH with G42S, Y106R, E107S

Inhibit as a Fab?: No
B16: X69-D02: single point mutation of M142-H08 (P1′); HV-CDR3 GGLLLWFRHLKSNYFDY (antibody, V domains shown)
VL: B1 VL
VH: B1 VH with Y106R, E107H

Inhibit as a Fab?: Yes
B18: X69-F05: single point mutation of M142-H08 (P1′); HV-CDR3 GGLLLWFRLLKSNYFDY (antibody, V domains shown)
VL: B1 VL
VH: B1 VH with Y106R, E107L

Inhibit as a Fab?: No
B19: X69-D08: single point mutation of M142-H08 (P1′); HV-CDR3 GGLLLWFRALKSNYFDY (antibody, V domains shown)
VL: B1 VL
VH: B1 VH with Y106R, E107A

Inhibit as a Fab?: No
B20: X69-H10: single point mutation of M142-H08 (P1′); HV-CDR3 GGLLLWFRYLKSNYFDY (antibody, V domains shown)
VL: B1 VL
VH: B1 VH with Y106R, E107Y

Inhibit as a Fab?: Yes
B26: X69-F01: single point mutation of M142-H08 (P1′); HV-CDR3 GGLLLWFRTLKSNYFDY (antibody, V domains shown)
VL: B1 VL
VH: B1 VH with G42S, Y106R, E107T

Inhibit as a Fab?: No
B27: X69-B02: single point mutation of M142-H08 (P1′); HV-CDR3 GGLLLWFRCLKSNYFDY (antibody, V domains shown)
VL: B1 VL
VH: B1 VH with Y106R, E107C

Inhibit as a Fab?: Yes
B28: X69-E01: single point mutation of M142-H08 (P1′); HV-CDR3 GGLLLWFRWLKSNYFDY (antibody, V domains shown)
VL: B1 VL
VH: B1 VH with Y106R, E107W

Inhibit as a Fab?: Yes
B29: X69-D09: single point mutation of M142-H08 (P1′); HV-CDR3 GGLLLWFRGLKSNYFDY (antibody, V domains shown)
VL: B1 VL
VH: B1 VH with Y106R, E107G

— US20100183625A1, “Treatment of Mucositis with Kallikrein Inhibitors” (Dyax Corp., priority 2009, published 2010)
